The source of these data is patent US20090104147A1.

Experiment [1] addresses porcine sialoadhesin (pig) (UniProt A7LCJ3). As to the kind of experiment: cell-based or functional assay.
Experiment [2] has as its target recombinant sialoadhesin expressed on CHO cells (CHO-Sn). As to the kind of experiment: cell-based or functional assay.

As for mAb 41D3/saporin conjugate, in experiment [1], the % Living cells, primary porcine macrophages, conjugate concentration 0.3*10^-6 was 30.4%; the % Living cells, primary porcine macrophages, conjugate concentration 10^-7 is 29.3%; the MTT assay OD value, primary porcine macrophages, column head 10 turned out to be 0.537 OD; the MTT assay OD value, primary porcine macrophages, column head 30 turned out to be 0.541 OD. In experiment [2], the % Living cells, CHO-Sn cells, conjugate concentration 0.1*10^-6 came out at 64.4%; the % Living cells, CHO-Sn cells, conjugate concentration 0.25*10^-6 is 57.1%; the % Living cells, CHO-Sn cells, conjugate concentration 0.5*10^-6 stood at 64.2%; the % Living cells, CHO-Sn cells, conjugate concentration 10^-7 came out at 63%. Besides, in experiment [2], the MTT assay OD value, CHO-Sn cells, 25 was determined as 1.35 OD; the MTT assay OD value, CHO-Sn cells, column head 6.25 was determined as 1.45 OD; the MTT assay OD value, CHO-Sn cells, column head 12.5 is 1.47 OD; the MTT assay OD value, CHO-Sn cells, column head 50 is 1.47 OD.
